Data from patent US20040213788A1 (published 2004).

T1: soluble human RANKL protein (human, UniProt O14788 140-317, limits assumed, biotinylated at a 20:1 molar ratio of NHS-biotin to protein (in the competition ELISA only))
T1 sequence (looked up): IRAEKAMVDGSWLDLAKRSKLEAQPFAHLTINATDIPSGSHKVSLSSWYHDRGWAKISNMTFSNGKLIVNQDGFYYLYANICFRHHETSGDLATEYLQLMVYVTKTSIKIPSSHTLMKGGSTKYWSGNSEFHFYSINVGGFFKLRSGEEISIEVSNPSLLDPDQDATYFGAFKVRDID

B1: human RANK-Fc fusion protein (Fc fusion, UniProt Q9Y6Q6 30-212, looked up, not shown: a dimerising Fc or GST)
chain: IAPPCTSEKHYEHLGRCCNKCEPGKYMSSKCTTTSDSVCLPCGPDEYLDSWNEEDKCLLHKVCDTGKALVAVVAGNSTTPRRCACTAGYHWSQDCECCRRNTECAPGLGAQHPLQLNKDTVCKPCLAGYFSDAFSSTDKCRPWTNCTFLGKRVEHHGTEKSDAVCSSSLPARKPPNEPHVYLP
B2: OPG-Fc (Fc fusion, UniProt O00300 22-201, looked up)
chain: ETFPPKYLHYDEETSHQLLCDKCPPGTYLKQHCTAKWKTVCAPCPDHYYTDSWHTSDECLYCSPVCKELQYVKQECNRTHNRVCECKEGRYLEIEFCLKHRSCPPGFGVVQAGTPERNTVCKRCPDGFFSNETSSKAPCRKHTNCSVFGLLLTQKGNATHDNICSGNSESTQKCGIDVTL
notes: also called osteoprotegerin-Fc; not shown: Fc part; not described
B3: mouse monoclonal antibody 14F3 (antibody, V domains shown)
VH: EVQLVESGGDLVKPGGSLKLSCAASGFTFSRYGMSWVRQTPDKRLEWVATISSGGSYTYYPDSVKGRFTISRDNAKNTLYLQMSSLKSEDTAMYYCARLDGYNYRWYFDVWGTGTTVTVSS
VL: DIVMTQSHKFMSTSVGDRVSITCKASQDVSSAVAWYQQKPGQSPKLLIYSASYRYTGVPDRFTGSGSGTDFTFTISSVQAEDLAVYYCQQHYSSPRTFGGGTNLEIKR
notes: Whole mouse IgG2a/kappa purified from hybridoma; also called 14F3 mAb; RANKL mAb 14F3

Assays:
[1] = biological target: T1, soluble human RANKL protein; assay: cell-based or functional assay
[2] = biological target: T1, soluble human RANKL protein; assay: competition ELISA: soluble RANK-Fc inhibits biotinylated shRANKL (0.43 nM) binding to coated RANK-Fc
Source text: (§1) A. A competition ELISA was established using a human RANK-Fc fusion protein coated on plastic and a biotinylated soluble human RANKL protein for detection in solution. The RANK-FC and RANKL proteins were produced in CHO cells and Pichia pastoris, respectively, and purified to >90% homogeneity. The shRANKL (soluble, human RANKL) protein was biotinylated at a 20:1 molar ratio of NHS-biotin to protein (Pierce, Rockford, Ill.) according to the manufacturer's specifications. 96-well ELISA plates were coated overnight at 4° C. with 50 ng/well ([…]) RANK-Fc in pH 9.6 carbonate-bicarbonate buffer. Plates were washed in pH 7.4 Tris-Saline buffer containing 0.1% Tween 20 and blocked for 2 h at RT in 1% BSA/PBS. Competitor proteins (RANK-Fc; death receptor 5 (DR5)-Fc; OPG-Fc; RANKL mAb 14F3) were diluted in 0.01% Tween 20/PBS and added to wells prior to the addition of biotinylated shRANKL (0.43 nM) and the combined samples were incubated for 2 hrs at room temperature. The amount of biotinylated shRANKL bound to coated RANK-Fc (+/−competitor) was measured using alkaline phosphatase conjugated streptavidin. The substrate for signal detection was 105 PNPP (Pierce Inc., Rockford, Ill.) and absorbence measured at 405 nm using a Spectra Max 340 plate reader.

[3] = biological target: T1, soluble human RANKL protein; assay: competition ELISA: inhibition of biotinylated shRANKL (0.43 nM) binding to coated RANK-Fc
Source text: as §1

[4] = biological target: T1, soluble human RANKL protein; assay: not described; paragraph 32 names optical biosensor analysis for Kd

Binder	IC50, formation of multinuclear cells (human monocyte osteoclastogenesis) [1]	IC50 [2]	IC50 [3]	Kd [4]
B1	~0.5 µg/mL	~6 nM	–	–
B2	–	–	~0.5 nM	–
B3	~4 µg/mL	–	~2 nM	~0.1 nM
